Test results from patent publication US20190119331A1, “SYSTEM AND METHOD OF OPTOGENETICALLY CONTROLLING METABOLIC PATHWAYS FOR THE PRODUCTION OF CHEMICALS” (The Trustees of Princeton University, published 2019).

Legend:
Gal4p = Gal4p (yeast (Saccharomyces cerevisiae), UniProt P04386); test: cell-based or functional assay
[1] = biological target: Gal4p-PSD fusion protein (yeast (Saccharomyces cerevisiae); Arabidopsis thaliana) (UniProt P04386)

B1: Gal80p (other)
chain: MDYNKRSSVSTVPNAAPIRVGFVGLNAAKGWAIKTHYPAILQLSSQFQITALYSPKIETSIATIQRLKLSNATAFPTLESFASSSTIDMIVIAIQVASHYEVVMPLLEFSKNNPNLKYLFVEWALACSLDQAESIYKAAAERGVQTIISLQGRKSPYILRAKELISQGYIGDINSIEIAGNGGWYGYERPVKSPKYIYEIGNGVDLVTTTFGHTIDILQYMTSSYFSRINAMVFNNIPEQELIDERGNRLGQRVPKTVPDHLLFQGTLLNGNVPVSCSFKGGKPTKKFTKNLVIDIHGTKGDLKLEGDAGFAEISNLVLYYSGTRANDFPLANGQQAPLDPGYDAGKEIMEVYHLRNYNAIVGNIHRLYQSISDFHFNTKKIPELPSQFVMQGFDFEGFPTLMDALILHRLIESVYKSNMMGSTLNVSNISHYSL
Question: Which results are given for B1?
Answer: GFP expression from PGAL1-GFP reporter (GFP/OD600), blue light (GAL80 expressed) against dark, strain YEZ100 (OptoINVRT1, gal4 gal80 deleted background) (Gal4p): 45.7 fold decrease; GFP expression from PGAL1-GFP reporter (GFP/OD600), blue light against dark, strain YEZ102 (OptoINVRT3) [1]: 70 fold
